The values that follow come from patent publication US20260167699A1 (Chugai, published 2026).

The target of the assay is T1, FcγRIIIa (human, UniProt P08637 17-208).
T1 construct: extracellular domain; also called 3a; FcγRIIIa extracellular domain
The experiment in a line: SPR (Biacore).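 Also: antibody variants captured on an SPR sensor chip, with FcγRIIIa passed over as analyte in HBS-EP+ buffer at 25 °C.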

T1 sequence (P08637 other isoform, or with tags, fused parts or gaps): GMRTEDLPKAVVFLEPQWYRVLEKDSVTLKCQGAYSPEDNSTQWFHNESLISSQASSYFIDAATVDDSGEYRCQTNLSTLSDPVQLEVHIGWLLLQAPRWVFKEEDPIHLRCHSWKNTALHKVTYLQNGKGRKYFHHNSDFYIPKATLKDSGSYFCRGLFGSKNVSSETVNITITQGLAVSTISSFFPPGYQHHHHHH

B1: GpH7-A5/GpH7-B3 variant S324_04F/GpL16-k0 (antibody, human IgG1, kappa)
heavy 1: not shown
heavy 2: not shown
light: DIVMTQSPLSLPVTPGEPASISCQASESLVHSNRNTYLHWYLQKPGQSPQLLIYKVSNRFSGVPDRFSGSGSGTDFTLKISRVEAEDVGVYYCSQNTHVPPTFGQGTKVEIERTVAAPSVFIFPPSDEQLKSGTASVVCLLNNFYPREAKVQWKVDNALQSGNSQESVTEQDSKDSTYSLSSTLTLSKADYEKHKVYACEVTHQGLSSPVTKSFNRGEC
notes: copies: 1 + 1 + 2
B1: the “He/Con 3a” value was 99.3 % of GpH7-A5/GpH7-B3/GpL16-k0.

B2: GpH7-A5/GpH7-B3 variant S337_02A/GpL16-k0 (antibody, human IgG1, kappa)
heavy 1: not shown
heavy 2: not shown
light: B1 light
notes: copies: 1 + 1 + 2
On to B2, for which the “He/Con 3a” value is 92.4 % of GpH7-A5/GpH7-B3/GpL16-k0.

B3: GpH7-A5/GpH7-B3 variant S324_10E/GpL16-k0 (antibody, human IgG1, kappa)
heavy 1: not shown
heavy 2: not shown
light: B1 light
notes: copies: 1 + 1 + 2
In the case of B3, the “He/Con 3a” value was 108 % of GpH7-A5/GpH7-B3/GpL16-k0.

B4: GpH7-A5/GpH7-B3 variant S324_06M/GpL16-k0 (antibody, human IgG1, kappa)
heavy 1: not shown
heavy 2: not shown
light: B1 light
notes: copies: 1 + 1 + 2
With B4, the “He/Con 3a” value is 124 % of GpH7-A5/GpH7-B3/GpL16-k0.

B5: GpH7-A5/GpH7-B3 variant S337_03V/GpL16-k0 (antibody, human IgG1, kappa)
heavy 1: not shown
heavy 2: not shown
light: B1 light
notes: copies: 1 + 1 + 2
Turning to B5, the “He/Con 3a” value is 87.1 % of GpH7-A5/GpH7-B3/GpL16-k0.

B6: GpH7-A5/GpH7-B3 variant S337_09D/GpL16-k0 (antibody, human IgG1, kappa)
heavy 1: not shown
heavy 2: not shown
light: B1 light
notes: copies: 1 + 1 + 2
For the molecule B6, the “He/Con 3a” value is 102 % of GpH7-A5/GpH7-B3/GpL16-k0.

B7: GpH7-A5/GpH7-B3 variant S298_15Y/GpL16-k0 (antibody, human IgG1, kappa)
heavy 1: not shown
heavy 2: not shown
light: B1 light
notes: copies: 1 + 1 + 2
On to B7, for which the “He/Con 3a” value is 80.6 % of GpH7-A5/GpH7-B3/GpL16-k0.

B8: GpH7-A5/GpH7-B3 variant S298_14T/GpL16-k0 (antibody, human IgG1, kappa)
heavy 1: not shown
heavy 2: not shown
light: B1 light
notes: copies: 1 + 1 + 2
Consider B8, for which the “He/Con 3a” value was 106 % of GpH7-A5/GpH7-B3/GpL16-k0.

B9: GpH7-A5/GpH7-B3 variant S298_07I/GpL16-k0 (antibody, human IgG1, kappa)
heavy 1: not shown
heavy 2: not shown
light: B1 light
notes: copies: 1 + 1 + 2
With B9, the “He/Con 3a” value is 90.7 % of GpH7-A5/GpH7-B3/GpL16-k0.

B10: GpH7-A5/GpH7-B3 variant S324_01G/GpL16-k0 (antibody, human IgG1, kappa)
heavy 1: not shown
heavy 2: not shown
light: B1 light
notes: copies: 1 + 1 + 2
Regarding B10, the “He/Con 3a” value was 114 % of GpH7-A5/GpH7-B3/GpL16-k0.

B11: GpH7-A5/GpH7-B3 variant S324_08L/GpL16-k0 (antibody, human IgG1, kappa)
heavy 1: not shown
heavy 2: not shown
light: B1 light
notes: copies: 1 + 1 + 2
Turning to B11, the “He/Con 3a” value is 95.5 % of GpH7-A5/GpH7-B3/GpL16-k0.

B12: GpH7-A5/GpH7-B3 variant S337_19Q/GpL16-k0 (antibody, human IgG1, kappa)
heavy 1: not shown
heavy 2: not shown
light: B1 light
notes: copies: 1 + 1 + 2
On to B12, for which the “He/Con 3a” value is 91.2 % of GpH7-A5/GpH7-B3/GpL16-k0.

B13: GpH7-A5/GpH7-B3 variant S337_14T/GpL16-k0 (antibody, human IgG1, kappa)
heavy 1: not shown
heavy 2: not shown
light: B1 light
notes: copies: 1 + 1 + 2
Consider B13, for which the “He/Con 3a” value was 94 % of GpH7-A5/GpH7-B3/GpL16-k0.

B14: GpH7-A5/GpH7-B3 variant T335_07I/GpL16-k0 (antibody, human IgG1, kappa)
heavy 1: not shown
heavy 2: not shown
light: B1 light
notes: copies: 1 + 1 + 2
Take B14: the “He/Con 3a” value was 102 % of GpH7-A5/GpH7-B3/GpL16-k0.

B15: GpH7-A5/GpH7-B3 variant S324_19Q/GpL16-k0 (antibody, human IgG1, kappa)
heavy 1: not shown
heavy 2: not shown
light: B1 light
notes: copies: 1 + 1 + 2
For B15, the “He/Con 3a” value was 96.2 % of GpH7-A5/GpH7-B3/GpL16-k0.

B16: GpH7-A5/GpH7-B3 variant S298_11K/GpL16-k0 (antibody, human IgG1, kappa)
heavy 1: not shown
heavy 2: not shown
light: B1 light
notes: copies: 1 + 1 + 2
Turning to B16, the “He/Con 3a” value is 50 % of GpH7-A5/GpH7-B3/GpL16-k0.

B17: GpH7-A5/GpH7-B3 variant S298_04F/GpL16-k0 (antibody, human IgG1, kappa)
heavy 1: not shown
heavy 2: not shown
light: B1 light
notes: copies: 1 + 1 + 2
As to B17, the “He/Con 3a” value is 77.6 % of GpH7-A5/GpH7-B3/GpL16-k0.

B18: GpH7-A5/GpH7-B3 variant S337_15Y/GpL16-k0 (antibody, human IgG1, kappa)
heavy 1: not shown
heavy 2: not shown
light: B1 light
notes: copies: 1 + 1 + 2
As to B18, the “He/Con 3a” value is 94.9 % of GpH7-A5/GpH7-B3/GpL16-k0.

B19: GpH7-A5/GpH7-B3 variant S324_14T/GpL16-k0 (antibody, human IgG1, kappa)
heavy 1: not shown
heavy 2: not shown
light: B1 light
notes: copies: 1 + 1 + 2
Turning to B19, the “He/Con 3a” value is 112 % of GpH7-A5/GpH7-B3/GpL16-k0.

B20: GpH7-A5/GpH7-B3 variant S324_05P/GpL16-k0 (antibody, human IgG1, kappa)
heavy 1: not shown
heavy 2: not shown
light: B1 light
notes: copies: 1 + 1 + 2
Turning to B20, the “He/Con 3a” value is 72.3 % of GpH7-A5/GpH7-B3/GpL16-k0.

B21: GpH7-A5/GpH7-B3 variant T335_09D/GpL16-k0 (antibody, human IgG1, kappa)
heavy 1: not shown
heavy 2: not shown
light: B1 light
notes: copies: 1 + 1 + 2
Take B21: the “He/Con 3a” value is 103 % of GpH7-A5/GpH7-B3/GpL16-k0.

B22: GpH7-A5/GpH7-B3 variant S298_19Q/GpL16-k0 (antibody, human IgG1, kappa)
heavy 1: not shown
heavy 2: not shown
light: B1 light
notes: copies: 1 + 1 + 2
As to B22, the “He/Con 3a” value is 70.6 % of GpH7-A5/GpH7-B3/GpL16-k0.

B23: GpH7-A5/GpH7-B3 variant S298_06M/GpL16-k0 (antibody, human IgG1, kappa)
heavy 1: not shown
heavy 2: not shown
light: B1 light
notes: copies: 1 + 1 + 2
For the molecule B23, the “He/Con 3a” value is 87.2 % of GpH7-A5/GpH7-B3/GpL16-k0.

B24: GpH7-A5/GpH7-B3 variant S298_08L/GpL16-k0 (antibody, human IgG1, kappa)
heavy 1: not shown
heavy 2: not shown
light: B1 light
notes: copies: 1 + 1 + 2
Regarding B24, the “He/Con 3a” value was 69.2 % of GpH7-A5/GpH7-B3/GpL16-k0.

B25: GpH7-A5/GpH7-B3 variant S324_11K/GpL16-k0 (antibody, human IgG1, kappa)
heavy 1: not shown
heavy 2: not shown
light: B1 light
notes: copies: 1 + 1 + 2
B25: the “He/Con 3a” value was 90.2 % of GpH7-A5/GpH7-B3/GpL16-k0.

B26: GpH7-A5/GpH7-B3 variant T335_01G/GpL16-k0 (antibody, human IgG1, kappa)
heavy 1: not shown
heavy 2: not shown
light: B1 light
notes: copies: 1 + 1 + 2
With B26, the “He/Con 3a” value was 95.1 % of GpH7-A5/GpH7-B3/GpL16-k0.

B27: GpH7-A5/GpH7-B3 variant S324_09D/GpL16-k0 (antibody, human IgG1, kappa)
heavy 1: not shown
heavy 2: not shown
light: B1 light
notes: copies: 1 + 1 + 2
Regarding B27, the “He/Con 3a” value was 110 % of GpH7-A5/GpH7-B3/GpL16-k0.

B28: GpH7-A5/GpH7-B3 variant S337_18N/GpL16-k0 (antibody, human IgG1, kappa)
heavy 1: not shown
heavy 2: not shown
light: B1 light
notes: copies: 1 + 1 + 2
With B28, the “He/Con 3a” value was 96.9 % of GpH7-A5/GpH7-B3/GpL16-k0.

B29: GpH7-A5/GpH7-B3 variant S337_20W/GpL16-k0 (antibody, human IgG1, kappa)
heavy 1: not shown
heavy 2: not shown
light: B1 light
notes: copies: 1 + 1 + 2
As for B29, the “He/Con 3a” value is 93.8 % of GpH7-A5/GpH7-B3/GpL16-k0.
